Measurements taken from a protein production outcome set (Wang et al. 2014).

Test: label from the status in PepcDB records

Row | Sequence | protein production
1 | MSQVRQVGLLAAGCQPWNKDVCAANGDRFAYCATLAIYIYQLDHRYNEFRLHAIMAEHKKTITAISWCPHNPDLFASGSTDNLVIIWNVAEQNVIAKLDNIKETPACLSWCWNTGDAVAFVSQKGPLLIWTISGPDSGVSVHKEAHGFVSDICIFRWHTQKKGKVAFGHTDGSISIFQPDEDDPVTALEWDPLSTDYLLVANLHYGIRLLDSESLYCITTFSFPSAAVSVQCLAWVPSAPGMFITGDSQVGVLRIWNVSRTTPIDSFKLKKAGFHCLHVVNSPPKRKFSVQSSNKNHYMSSTSEAVPPPSLTRNQAFSLPPGHVVCCFLDGGVGLYDMGAKKWDFLRELGHVETIFDCKFKPDDPNLLATASFDGTIKVWDINTLTAVYTSPGNEGVIFALSWAPGDLNCIAGATSRNGAFIWDIQKGKMIQRFNEHGKNGIFYIAWSHKDSKRIATCSGDGFCIIRTLDGKLLHKYKHPAAVFGCDWSQNNKDMIATGCEDKHVRVFYVASSSNQPLKVFSGHTARVFHVKWSPLREGVLCSGSDDGSVRIWDYTQDACISILNGHTAPVRGLMWNTEIPYLLISGSWDYTIKVWDTRGGVCLDTVYDHGADVYGLTCHPSRPFTMASCSRDSTVRLWSLIPLITPLQINILADRPWEEIIGNTDNAIEQASPPLLCGKASKDIKQEVEKLTCNPRVKKLRLFSECLSSPGGSDNLWNLVAVIKGQDDSLLPQNYYKGMMHLKHLIKFRTSEAQELTTIKMSKFGGGIGAPTKENKLKEAAEIHLRLGQIQRYCELMVELGEVA | failed
2 | MSIESFNLLLLVMGLVALVVFIALYFVRAGYGMFRSRSWGISVNNKIAWILMEAPVFLVMGWLWWHSDRRFLPVELTFFLFFQLHYFQRAFVFPFLMKGKSKMPVLILLMGVIFNILNGLMQGEWIFYLAPSDYYTPGWLLTPCFWIGTLLFFAGMGINWHSDSVIRHLRAPGDTRHYLPQRGMYRYVTSANYLGEIVEWVGWAILTWSLSGCIFAWWTVANLVPRADAIWHRYREEFGTQVGLKKRIFPFLY | failed
3 | MTIGRAKVYATLSKIFYHLFYDEAIPKDCREIIEKFGEIDFNLRSVLVRELRGSVLIKDMPQSLAEVYESVMKDFYERYGFQASELHADHIAVELAFMSKLVEREISLAQQMKEEELYKIRAAQHRFIKAHLQPLVKNLPSAPLLNFVRDFVREDAKYLYSSLVGEKNEGADNN | not failed
4 | MKKGIQPLKWKDVPALAVLGFFSVTLHHLLINTGQQYVTAVASSILSQSIPLFTFIISALLFKEQISFKQWLCILLGLCGAVLVVSGDHGFGMPSPYSLLIVLAAIAWGLYFNLYKKFALNYDALSMMCYIIWFGTLPLLFYSAHLPSEILHATWQANMSVVLLGIFPSAMAYVLWGYVLKNMPLTIASNFLYCSPIVAMSLAVLFLNEKPSIIVLLGGVIIVGSLVWMNWGRKK | failed
5 | MRGWTAVTDTAGTPSGDGPEQAAVPGPGGGASPIGAGLVRRRRRWLRHTAFGVAALVLGAAGAGWAVYEKLNSNITADEAAAAELARYEKERPTSLVRDAQNILLIGSDSRSGDGNSQYGRDTGTERSDTTILLHLPANRHSATAVSLPRDLMVDIPSCRRPDGTRTAPTFAMFNQAFETGGSACTIRTAEKLTNVRIDHHMVVDFSGFKEMVDAVDGVEVCLKDPIDDKDAKLRLPAGKQLLDGEQALGYVRARKSIGNGSDTDRMDRQQRFLGALVNKVQGNDVLLNPVKLYPVLDAATSSLTTDPDLASLRGLYELVRGMRNIPPERVQFLTVPRTSYVNNANRDQLVEPDAEKLFARLRADAPLEVAKDYAGYDEQSGGDGTLSGKPLDTPAGTPDPTPTFRGNTAAEDGCE | failed
6 | MVEHATSETDLDRIVRMFDGANLIVHGFDGVIQRWTSGCEQLYGWSASEAVGNVVHDLLDTQFPAGVEELRTEVRDKGFWTGQVGHRRKDGVRLAIVTRWTVLELGDPDTLIIQSNNDVTLMQQVGDELRERQAHLQSILATVPDAMIVIDDKGCIASFSTAAEKLFGYSADEAIGQNVSMLMPSPDREAHDGYLDSYIRTGRRRIIGYGRVVVGLRKHGTTFPMELSVGEAVAGGKRTFTGFVRDLTSRHRIEAELRQSQKMEAVGQLTGGLAHDFNNLLAVIIGNLEMLEARLAEPGQLSLLREAQSAADDGARLTSQLLAFGRRQALAPTVLDVGALLGEFSDLVQRTLGDSVELRTIIPGRRLSAMADKAQLQSALLNLSINARDAMPAGGRLTIEISGVEIDADYVGMYPAIRPGRYVLISVTDTGTGMTSEVMERAFEPFFTTKPTGSGTGLGLSMVYGFAKQSAGHLQLYSEPGEGTTVRLFLPRADGGRDSHPDEQQVKDAPSPGTETILVVEDDARVRRVTISRLQTLGYSVIEATNGIDALKELEAGHDVALLFSDVAMPGMNGDELARKVRERWPRVKILLTSGFSEPHAAEKEIEAGAGWLKKPYTASEMSTRLRLLLDARHGSDSA | failed
7 | MTERFDCHHCNESLFGKKYILREESPYCVVCFETLFANTCEECGKPIGCDCKDLSYKDRHWHEACFHCSQCRNSLVDKPFAAKEDQLLCTDCYSNEYSSKCQECKKTIMPGTRKMEYKGSSWHETCFICHRCQQPIGTKSFIPKDNQNFCVPCYEKQHAMQCVQCKKPITTGGVTYREQPWHKECFVCTACRKQLSGQRFTARDDFAYCLNCFCDLYAKKCAGCTNPISGLGGTKYISFEERQWHNDCFNCKKCSLSLVGRGFLTERDDILCPDCGKDI | failed
8 | MNLLVIGGHERMEKDYMVMAKKKGYKTKVYTTMSSKLNNSIGRPDAVVILTSTVSHKMSRTVESQAKKQDILIVRHKNSSKVAFNECLDMVDECLGNCSKCKLKDKQKQKNILEHHHHHH | failed
9 | MKKLNTNKLTEEQVNLFKNNLVYLATVDADGNPQVGPKGSMTVLDPSHLQYLEKTKGEAYENIKRGSKVALVAADVPSHTAVRVLATAEVHEDDDYAKKVLAKTEFPNAFVVNLNIEEVFA | not failed
10 | MGAKGKFWILTMVVAISGLSQGVLLPLIAIILEERGISAGINGFHATGIYLGVLLISPFIEAPLHKYGYKPIILVGGGLVAVSILAFPIWFNLYFWFILRLLIGVGDHMLHFSSQTWIGAMSDPSKRGRNMAIYGLFFSLGFAIGPQLVNLAEINANLPFFLSGILVLIAWGLVWFVRNDFVGEKAVIRKISFWGSLKRFSDVFKLAWVAMIPPFLYGILETGLNATFPVVGLRDGLDTMMIAMVISSFSVGTIIFQVPIGIVSDKFGRGKVLPLLTGAGAVVFVLTAFVKIPVLYVVFFFVLGILLGSLYSLGLSYMTDLTPLELLPAGNILVGMCFSLGSIIGPSATGMMIGIFGNQIFYFVVAGILVLGCLLLIFGARKDALEKKMKN | failed
11 | MKKKSLIILSIIVLIFVCITLYLTREHIMVFYKLITNGEVVKSYLERFGPWAAVIFFVFQILQVVIFFIPGEVIQAAGGYIFGALGGTLLSFFGIAVGSAILFYICQKFGKKLVQRFVPKDMYDKLEKILNSPKFKLILVILFFLPGAPKDSLIMVCALSNITIGHFIIFSMIGRIPALVASSFMGANLAEGNIVGVIIIGVIALIACALGVIFRKDVFKYMEKL | failed
12 | SSSSCTVTTGTLGFGDKFKRPIGSWECSVCCVSNNAEDNKCVSCMSEKPG | not failed
13 | MNQKDVKLTVFSSDEKSFMVTATLVEKAGHAFLINSKFTQSDSKEIVEYLKKNNLSLDKIFIIHGDPDYYFGLESIKAVYPEAIAYATESTVEHIVHSVLGKLKVWKDALGENAPSNVVLPQVFKEKAIDFQGLTFELVGLEHYRTSLFNKELKVLIGGIDVFNEIHVFLADTSSKAAMEAWIENLKVLQALHADIIVPSHGSIEKSLNNQALTATMDYLRTAVQASEESGTSKDFVAKLEAAYPDYANKGVLELSAKVVTKELEHHHHHH | failed
14 | GLPVAQSTTTLIDALRTHRMAVVQAPPGTGKTTLVPPIAHNVTGGRVIVVAPRRVAVRAAAHHLVQLDQSSCDQPSTHRVGYTIRGERSRGDLVEFVTPGVLLRRLISNPELDGVSAVVVDEVHERQLDTDLVLGMLVELRELRDDLTVIAMSAT | failed
15 | MTIQDYMLETPVRMREIISNADSLFNEVKRTNLKKIIITGSGTSYHSGVQVQPYLQNLLDIDVVKMYPFMITEDTFKFDNENTLVVGVSQGGSSYSTYNAMKLAEDKGCKIASMAGCKNALIDEISDYILTVNCGEEKSGAKTKGYYCTKLNLMLLGLQIAREKGIISSEKYNEEINKILDAINRFEAVYKLSKQWIERNKEKLVNSKEIRIIGHSDIYGDTLEAALKLLETMRIPVTGYEFEEFIHGIYNAINSDSTIFILDTGKEPRVTKMIDVLSGWTENVFAIGRDVTENDKNLKIDITDNPYYQTFNFIVPIQLICGEIPTLRGVDPSVPKDTRFHMKLGSKKLNK | not failed
